Tests used:
FLAG-APP = FLAG-APP (UniProt P05067)
FLAG-Alcalpha = system: T1, FLAG-Alcalpha
T1 sequence 1: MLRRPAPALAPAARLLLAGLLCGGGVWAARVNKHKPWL
T1 sequence 2: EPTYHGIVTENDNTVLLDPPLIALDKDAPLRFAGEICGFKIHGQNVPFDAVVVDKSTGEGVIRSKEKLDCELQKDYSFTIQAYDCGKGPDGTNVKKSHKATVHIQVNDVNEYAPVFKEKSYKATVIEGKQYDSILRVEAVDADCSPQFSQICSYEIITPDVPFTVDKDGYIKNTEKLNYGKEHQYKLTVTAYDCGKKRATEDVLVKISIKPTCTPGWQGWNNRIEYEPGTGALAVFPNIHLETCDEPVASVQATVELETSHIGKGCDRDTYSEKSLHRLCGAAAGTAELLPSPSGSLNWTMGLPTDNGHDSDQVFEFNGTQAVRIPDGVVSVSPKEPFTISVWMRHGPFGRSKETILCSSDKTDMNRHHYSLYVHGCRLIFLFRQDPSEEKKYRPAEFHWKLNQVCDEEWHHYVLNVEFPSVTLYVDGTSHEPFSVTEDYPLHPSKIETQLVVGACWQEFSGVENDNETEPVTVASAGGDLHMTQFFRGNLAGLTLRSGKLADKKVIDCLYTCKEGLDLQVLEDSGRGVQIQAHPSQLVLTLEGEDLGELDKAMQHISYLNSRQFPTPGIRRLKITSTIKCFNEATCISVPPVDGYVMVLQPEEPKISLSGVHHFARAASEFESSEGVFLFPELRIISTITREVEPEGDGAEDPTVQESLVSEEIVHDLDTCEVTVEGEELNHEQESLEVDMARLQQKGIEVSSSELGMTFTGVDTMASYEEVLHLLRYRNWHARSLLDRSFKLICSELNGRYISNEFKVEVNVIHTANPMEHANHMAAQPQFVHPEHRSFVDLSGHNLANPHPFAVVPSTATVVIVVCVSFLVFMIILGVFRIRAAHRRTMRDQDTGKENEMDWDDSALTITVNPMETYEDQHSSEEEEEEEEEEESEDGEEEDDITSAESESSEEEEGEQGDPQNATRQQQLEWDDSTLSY

FLAG-Alcbeta = system: T2, FLAG-Alcbeta
T2 sequence 1: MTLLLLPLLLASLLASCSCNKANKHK
T2 sequence 2: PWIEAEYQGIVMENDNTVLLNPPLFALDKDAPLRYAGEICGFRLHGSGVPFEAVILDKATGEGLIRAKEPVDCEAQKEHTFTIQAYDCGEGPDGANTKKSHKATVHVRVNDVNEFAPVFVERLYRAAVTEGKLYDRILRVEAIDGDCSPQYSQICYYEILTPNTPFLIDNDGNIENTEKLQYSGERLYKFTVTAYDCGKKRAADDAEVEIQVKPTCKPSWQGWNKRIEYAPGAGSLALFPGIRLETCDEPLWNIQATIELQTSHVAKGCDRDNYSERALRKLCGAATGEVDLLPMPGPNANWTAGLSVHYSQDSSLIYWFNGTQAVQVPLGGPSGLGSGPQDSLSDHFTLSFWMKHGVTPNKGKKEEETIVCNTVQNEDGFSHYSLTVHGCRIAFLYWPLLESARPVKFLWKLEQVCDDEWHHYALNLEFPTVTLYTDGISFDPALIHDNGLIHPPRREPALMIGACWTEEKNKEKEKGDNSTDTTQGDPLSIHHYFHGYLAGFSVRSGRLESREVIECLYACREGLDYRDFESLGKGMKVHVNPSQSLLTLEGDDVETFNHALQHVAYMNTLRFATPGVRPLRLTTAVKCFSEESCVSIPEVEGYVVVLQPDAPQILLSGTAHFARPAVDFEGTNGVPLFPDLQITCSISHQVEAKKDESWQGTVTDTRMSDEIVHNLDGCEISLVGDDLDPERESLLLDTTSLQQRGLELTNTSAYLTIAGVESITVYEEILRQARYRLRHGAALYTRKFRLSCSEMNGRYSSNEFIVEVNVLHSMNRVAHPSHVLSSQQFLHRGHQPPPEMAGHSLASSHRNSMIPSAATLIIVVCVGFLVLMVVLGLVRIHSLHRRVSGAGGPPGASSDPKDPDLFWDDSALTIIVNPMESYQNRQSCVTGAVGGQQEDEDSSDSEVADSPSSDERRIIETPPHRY

FLAG-Alcgamma = system: T3, FLAG-Alcgamma
T3 sequence 1: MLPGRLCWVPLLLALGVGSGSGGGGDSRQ
T3 sequence 2: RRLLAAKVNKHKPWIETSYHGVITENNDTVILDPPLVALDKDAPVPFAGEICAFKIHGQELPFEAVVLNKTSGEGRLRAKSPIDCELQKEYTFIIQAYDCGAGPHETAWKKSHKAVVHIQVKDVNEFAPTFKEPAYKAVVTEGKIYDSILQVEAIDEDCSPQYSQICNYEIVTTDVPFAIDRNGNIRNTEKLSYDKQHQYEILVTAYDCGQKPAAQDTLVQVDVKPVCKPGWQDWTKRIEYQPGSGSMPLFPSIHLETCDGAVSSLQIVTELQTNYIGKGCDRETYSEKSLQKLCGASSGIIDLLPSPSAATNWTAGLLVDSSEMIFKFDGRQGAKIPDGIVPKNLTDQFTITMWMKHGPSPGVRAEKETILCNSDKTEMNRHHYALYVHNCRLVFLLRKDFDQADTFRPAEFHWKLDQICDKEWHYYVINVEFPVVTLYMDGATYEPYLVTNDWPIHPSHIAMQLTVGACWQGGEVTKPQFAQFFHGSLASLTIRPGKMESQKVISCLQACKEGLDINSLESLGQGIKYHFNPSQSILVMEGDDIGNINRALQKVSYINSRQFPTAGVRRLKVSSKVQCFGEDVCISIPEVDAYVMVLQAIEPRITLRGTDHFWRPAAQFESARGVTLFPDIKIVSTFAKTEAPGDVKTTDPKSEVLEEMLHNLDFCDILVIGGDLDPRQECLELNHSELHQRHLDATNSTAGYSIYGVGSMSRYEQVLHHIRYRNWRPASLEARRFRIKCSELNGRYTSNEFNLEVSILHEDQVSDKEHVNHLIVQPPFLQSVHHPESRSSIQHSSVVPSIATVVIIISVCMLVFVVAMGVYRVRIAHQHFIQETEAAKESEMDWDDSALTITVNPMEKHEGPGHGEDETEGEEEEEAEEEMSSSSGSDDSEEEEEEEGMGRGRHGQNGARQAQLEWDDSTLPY

Chain of ADAM10-HA (O14672 whole entry): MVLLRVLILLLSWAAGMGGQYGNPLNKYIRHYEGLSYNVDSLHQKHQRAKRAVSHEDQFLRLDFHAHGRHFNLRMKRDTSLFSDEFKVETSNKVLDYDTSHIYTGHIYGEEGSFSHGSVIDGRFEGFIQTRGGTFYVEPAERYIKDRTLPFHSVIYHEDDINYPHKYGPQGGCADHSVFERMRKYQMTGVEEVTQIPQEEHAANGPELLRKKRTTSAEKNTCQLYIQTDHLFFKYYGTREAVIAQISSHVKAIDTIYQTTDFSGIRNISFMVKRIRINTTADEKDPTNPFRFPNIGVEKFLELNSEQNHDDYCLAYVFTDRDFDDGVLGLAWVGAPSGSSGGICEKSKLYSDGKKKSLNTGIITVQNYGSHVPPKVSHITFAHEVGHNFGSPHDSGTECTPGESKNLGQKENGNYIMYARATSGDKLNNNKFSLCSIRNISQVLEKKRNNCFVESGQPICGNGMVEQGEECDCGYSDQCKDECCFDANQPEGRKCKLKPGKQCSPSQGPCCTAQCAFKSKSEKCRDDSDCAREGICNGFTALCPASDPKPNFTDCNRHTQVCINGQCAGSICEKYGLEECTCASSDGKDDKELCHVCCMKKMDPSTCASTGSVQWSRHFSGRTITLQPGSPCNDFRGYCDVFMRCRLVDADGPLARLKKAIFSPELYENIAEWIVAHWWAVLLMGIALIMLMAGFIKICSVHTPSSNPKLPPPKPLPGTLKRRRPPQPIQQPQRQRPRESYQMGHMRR
Chain of FLAG-APP (P05067 whole entry, looked up): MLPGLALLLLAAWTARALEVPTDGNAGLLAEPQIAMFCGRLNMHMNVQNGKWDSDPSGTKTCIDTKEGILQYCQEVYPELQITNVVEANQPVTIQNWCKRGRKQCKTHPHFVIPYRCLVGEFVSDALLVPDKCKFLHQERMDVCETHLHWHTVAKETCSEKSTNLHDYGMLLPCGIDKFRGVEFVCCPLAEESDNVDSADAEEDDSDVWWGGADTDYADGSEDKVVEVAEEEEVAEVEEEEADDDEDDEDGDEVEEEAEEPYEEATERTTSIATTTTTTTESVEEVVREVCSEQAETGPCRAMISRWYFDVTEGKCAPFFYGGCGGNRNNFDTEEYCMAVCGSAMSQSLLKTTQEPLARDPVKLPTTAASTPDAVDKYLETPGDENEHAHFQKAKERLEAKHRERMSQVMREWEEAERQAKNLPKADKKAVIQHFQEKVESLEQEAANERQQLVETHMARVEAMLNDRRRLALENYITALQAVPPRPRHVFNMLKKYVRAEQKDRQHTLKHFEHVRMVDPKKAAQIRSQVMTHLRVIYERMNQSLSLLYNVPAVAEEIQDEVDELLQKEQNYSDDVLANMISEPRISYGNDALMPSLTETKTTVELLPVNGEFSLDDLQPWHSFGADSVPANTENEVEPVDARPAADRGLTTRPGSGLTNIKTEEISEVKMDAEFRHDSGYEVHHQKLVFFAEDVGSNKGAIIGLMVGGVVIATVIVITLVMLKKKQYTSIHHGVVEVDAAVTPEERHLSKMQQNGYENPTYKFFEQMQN

## ADAM10-HA
FLAG-APP
  amount of sAPP secreted by ADAM (-/-) MEFs with exogenous ADAM10 against without: about 1.7 fold over that of sAPP secreted by ADAM (-/-) MEFs
FLAG-Alcalpha
  amount of sAlcalpha secreted by ADAM (-/-) MEFs with exogenous ADAM10: The amounts of sAlcalpha, sAlcbeta, and sAlcgamma secreted by ADAM (-/-) MEFs were restored in response to the expression of exogenous ADAM10
FLAG-Alcbeta
  amount of sAlcbeta secreted by ADAM (-/-) MEFs with exogenous ADAM10: The amounts of sAlcalpha, sAlcbeta, and sAlcgamma secreted by ADAM (-/-) MEFs were restored in response to the expression of exogenous ADAM10
FLAG-Alcgamma
  amount of sAlcgamma secreted by ADAM (-/-) MEFs with exogenous ADAM10: The amounts of sAlcalpha, sAlcbeta, and sAlcgamma secreted by ADAM (-/-) MEFs were restored in response to the expression of exogenous ADAM10
